Molecular target: acid-purified histones (human (endogenous in TE-7))

CCL2 secretion by HMC-1 mast cells (42-cytokine multiplex array), fold change against untreated, 23.4 nM recombinant WT IL-33 without and with 6.7 µg/mL acid-purified histones: 822 fold
B1: recombinant GST-tagged full-length IL-33 (H00090865-P01, Abnova) (natural protein)
chain: MKPKMKYSTNKISTAKWKNTASKALCFKLGKSQQKAKEVCPMYFMKLRSGLMIKKEACYFRRETTKRPSLKTGRKHKRHLVLAACQQQSTVECFAFGISGVQKYTRALHDSSITGISPITEYLASLSTYNDQSITFALEDESYEIYVEDLKKDEKKDKVLLSYYESQHPSNESGDGVDGKMLMVTLSPTKDFWLHANNKEHSVELHKCEKPLPDQAFFVLHNMHSNCVSFECKTDPGVFIGVKDNHLALIKVDSSENLCTENILFKLSET

From paper PMC6092330
